Experiment [1] deals with Human DLL3 full-length protein (human). Description: FACS on H1184 cells.
Experiment [2] shares this target. Description: cell-based or functional assay.
Experiment [3] has as its target Cynomolgus monkey DLL3 full-length protein (cynomolgus monkey). Description: FACS on cynoDLL3/CHO-s cells.

pEC50: −log10 of the molar value.

The pEC50 is the EC50 on a negative log10 scale, so that one unit is a factor of ten. Regarding BI-764532 (antibody), in experiment [1], the pEC50 was 8.40 and the Emax (geometric MFI) was determined as 1620. In experiment [2], the IC50 (nM), cell killing caused by endocytosis of antibody (DT3C, DMS53/DLL3 cells) stood at 3.27 nM and the Imax, cell killing caused by endocytosis of antibody (DT3C, DMS53/DLL3 cells) amounted to 86.5. Also, in experiment [3], the negative-log EC50 (pEC50) is 8.47 and the Emax (geometric MFI) came to 963.

These data come from patent EP4674437A1.
